For 1 substance, stoichiometry N results are on record in article PMC10592267.

The target of the assay is poplar cellulose synthase isoform-8 (CesA8) from hybrid aspen (hybrid aspen (poplar)). Description: cryo-EM structure; purified CesA8 in 0.02% GDN, incubated with 20 mM MgCl2 and 5 mM UDP or UDP-Glc for 30 min on ice before grid preparation; non-uniform refinement with C3 symmetry.

Usually stoichiometry N stands for the number of molecules, sites or subunits per partner or assembly. With “poplar cellulose synthase isoform-8 (CesA8) from hybrid aspen (enzyme)”, the stoichiometry N is 3.
